Data as given in patent US9370316B2, “MRI estimation of contrast agent concentration using a neural network approach” (HENRY FORD HEALTH SYSTEM, priority 2007, dated 2016).

Experiment: MRI (TOMROP) after injection of Gd-BSA in 9 L rat model of cerebral gliosarcoma
Format: in vivo, Fisher 344 rats
Conditions: rats with 9 L cerebral tumor
Source text: Given a “gold-standard” map of CA concentration, an ANN is trainable to directly estimate CA concentration from MRI image sets in which the time-varying behavior of the images depends, albeit nonlinearly, on CA concentration. Some of our studies using TOMROP (“T One by Multiple Read Out Pulses”) image sets as inputs in a set of tubular gel phantoms are supportive. In accordance with some embodiments, without limitation, an ANN for estimating CA concentration in the brain tissue of 9 male Fisher rats, using as inputs TOMROP signal changes after injection of Gd-BSA in a 9 L rat model of cerebral gliosarcoma (Ewing et al. 2006), was designed, trained, optimized, and tested. The MRI experiment was followed by quantitative autoradiography (“QAR”) using radioiodinated serum albumin (“RISA”), thus essentially replicating the MRI as to its timing, procedures, and indicator. The autoradiogram of the QAR procedure served as the training set.
Animal Studies: As part of our studies to compare MRI estimates of transfer constant to QAR estimates (results not included here), nine animals (Fisher 344 rats) with 9 L tumor (Ewing et al. 2006) were studied. Mean tumor age was 14.6±0.7 days (range 14 to 16 days) for all animals. […]

Gadolinium-labeled Bovine Serum Albumin [Gd-BSA]
Extravasation of Gd-BSA: occurred within the tumors and at tumor borders in all animals
